{"source": "paper PMC3591176", "biological_target": "Bbil-TX, basic PLA2 from Bothriopsis bilineata snake venom (Bothriopsis bilineata)"}
{"substance": "crotapotin isoform F3 from Crotalus durissus cascavella rattlesnake venom (natural protein)", "values": [{"measurement": "inhibition of the PLA2 activity of Bbil-TX (substrate 4-nitro-3-octanoyloxy-benzoic acid) after preincubation of enzyme and inhibitor for 30 min at 37°C", "value": 50, "unit": "%"}]}
